Key:
Settings in all cases: both partners purified
NorC WT [1] = biological target: T1, NorC WT (Staphylococcus aureus subsp. aureus COL …); assay: ITC; ICab (200 uM, syringe) titrated into NorC WT (20 uM, cell); 25 °C; 20 mM HEPES pH 7.0, 200 mM NaCl, 4 mM n-decyl-beta-D-maltopyranoside; one set of sites model
T1 construct: also called NorC wild-type; source: E. coli C41(DE3), extracted from membranes in DDM, purified (Ni-NTA, SEC in DM)
T1 chain: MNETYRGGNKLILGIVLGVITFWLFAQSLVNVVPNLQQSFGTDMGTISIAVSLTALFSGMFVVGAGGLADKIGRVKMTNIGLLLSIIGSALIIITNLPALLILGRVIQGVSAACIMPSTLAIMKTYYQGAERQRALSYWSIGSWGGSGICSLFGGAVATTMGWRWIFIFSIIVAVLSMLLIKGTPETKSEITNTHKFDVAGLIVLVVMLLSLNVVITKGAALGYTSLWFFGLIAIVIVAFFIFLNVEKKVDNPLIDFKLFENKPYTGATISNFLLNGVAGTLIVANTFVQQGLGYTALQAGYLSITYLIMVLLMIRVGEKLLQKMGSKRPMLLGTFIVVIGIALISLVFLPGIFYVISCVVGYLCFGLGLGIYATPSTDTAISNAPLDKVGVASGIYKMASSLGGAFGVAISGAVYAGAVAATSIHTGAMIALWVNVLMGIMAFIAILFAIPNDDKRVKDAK

NorC WT [2] = biological target: T1, NorC WT; assay: ITC; ICab (200 uM, syringe) titrated into NorC WT (20 uM, cell) with 1 mM TPP in both cell and syringe; 25 °C; 20 mM HEPES pH 7.0, 200 mM NaCl, 4 mM n-decyl-beta-D-maltopyranoside; 16 injections of 2.5 ul; one set of sites model
NorC WT (wild-type) [3] = biological target: T2, NorC WT (wild-type) (Staphylococcus aureus subsp. aureus COL …); assay: ITC; ICab (200 uM) in the syringe titrated into NorC WT (20 uM) in the cell, with 1 mM TPP in both cell and syringe; 25 °C; 20 mM HEPES pH 7.0, 200 mM NaCl, 4 mM n-decyl-beta-D-maltopyranoside; 16 injections of 2.5 ul; one set of sites model
T2 chain: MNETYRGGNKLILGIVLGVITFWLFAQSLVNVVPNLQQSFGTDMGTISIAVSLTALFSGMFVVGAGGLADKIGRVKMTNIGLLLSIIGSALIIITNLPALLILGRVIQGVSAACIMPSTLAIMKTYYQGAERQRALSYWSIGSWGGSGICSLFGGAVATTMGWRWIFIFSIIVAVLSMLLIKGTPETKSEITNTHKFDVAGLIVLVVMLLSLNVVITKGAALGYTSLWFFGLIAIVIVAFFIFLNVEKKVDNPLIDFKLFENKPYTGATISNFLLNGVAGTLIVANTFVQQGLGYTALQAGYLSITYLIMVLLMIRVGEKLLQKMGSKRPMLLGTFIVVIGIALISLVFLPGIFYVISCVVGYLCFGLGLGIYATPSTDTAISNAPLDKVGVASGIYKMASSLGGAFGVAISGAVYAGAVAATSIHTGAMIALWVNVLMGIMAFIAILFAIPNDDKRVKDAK

NorC WT (wild-type) [4] = biological target: T2, NorC WT (wild-type); assay: ITC; ICab (200 uM) in the syringe titrated into NorC WT (20 uM) in the cell; 25 °C; 20 mM HEPES pH 7.0, 200 mM NaCl, 4 mM n-decyl-beta-D-maltopyranoside; one set of sites model
NorC WT (wild-type) [5] = biological target: T3, NorC WT (wild-type) (Staphylococcus aureus subsp. aureus COL …); assay: ITC; as without TPP+, but in the presence of 1 mM TPP+; 16 injections of 2.5 ul; 25 °C; 20 mM HEPES pH 7.0, 200 mM NaCl, 4 mM DM
T3 construct: not shown: His8, C-terminal, kept
T3 chain: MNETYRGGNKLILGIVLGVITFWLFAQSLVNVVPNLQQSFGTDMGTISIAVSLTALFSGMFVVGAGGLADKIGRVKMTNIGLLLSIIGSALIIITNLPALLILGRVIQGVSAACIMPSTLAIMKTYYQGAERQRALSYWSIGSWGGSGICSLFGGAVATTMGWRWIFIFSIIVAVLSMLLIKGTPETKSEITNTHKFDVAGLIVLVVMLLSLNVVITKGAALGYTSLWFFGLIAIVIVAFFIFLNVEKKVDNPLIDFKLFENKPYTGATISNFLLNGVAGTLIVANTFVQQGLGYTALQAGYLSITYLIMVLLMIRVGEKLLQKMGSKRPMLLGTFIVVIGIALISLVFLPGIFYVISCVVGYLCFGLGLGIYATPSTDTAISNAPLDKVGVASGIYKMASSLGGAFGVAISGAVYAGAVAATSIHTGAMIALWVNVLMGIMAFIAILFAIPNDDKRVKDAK

NorC WT (wild-type) [6] = biological target: T3, NorC WT (wild-type); assay: MST; 10 nM transporter labelled with red Tris-NTA dye, ICab titrated from 5 uM in twofold dilutions; Monolith NT.115 premium-coated capillaries; single-site binding model

B1: single-domain Indian camelid antibody (ICab) (VHH)
VHH: QVQLEESGGGSVQAGGSLRLSCAASGYMYSTYSTYCMGWFRQAPGKEREGVAFIKRGDHSTYYTDSVKGRFTISQDSAKNTVSLQMNNLKPEDTAIYYCAADFAHSFLLSVHSGAGQYSYWGQGTQVTVSS
For B1, the Kd (NorC WT [1]) was 46.6 ± 8.9 nM, the “stoichiometry N” value (NorC WT [1]) was 1.04 ± 0.005 and the “stoichiometry N” value (NorC WT [2]) was 1.14 ± 0.012.

B2: single-domain Indian camelid antibody (ICab) (VHH)
VHH: QVQLEESGGGSVQAGGSLRLSCAASGYMYSTYSTYCMGWFRQAPGKEREGVAFIKRGDHSTYYTDSVKGRFTISQDSAKNTVSLQMNNLKPEDTAIYYCAADFAHSFLLSVHSGAGQYSYWGQGTQVTVSS
notes: also called single-domain camelid antibody
With B2 the “stoichiometry N” value (NorC WT (wild-type) [3]) was 1.14, the Kd (NorC WT (wild-type) [4]) was 46.6 nM and the “stoichiometry N” value (NorC WT (wild-type) [4]) was 1.04.

B3: Zn2+-bound single-domain Indian camelid antibody (ICab) (VHH)
VHH: QVQLEESGGGSVQAGGSLRLSCAASGYMYSTYSTYCMGWFRQAPGKEREGVAFIKRGDHSTYYTDSVKGRFTISQDSAKNTVSLQMNNLKPEDTAIYYCAADFAHSFLLSVHSGAGQYSYWGQGTQVTVSS
notes: also called single-domain camelid antibody; vhh
B3 gave a Kd (NorC WT (wild-type) [5]) of 35.6 ± 16 nM and a Kd (NorC WT (wild-type) [6]) of 37.5 ± 16 nM.
